# Patent US20240092841A1
# Legend:
# Test in all cases: co-IP with agarose-bound AvFc from H460 whole-cell lysate, mass spectrometry
# Agrin (human) = Agrin (human) (UniProt O00468)
# [1] = target: Myoferlin (Q9NZM1-2) (human) (UniProt Q9NZM1)
# Fibronectin (human) = Fibronectin (human) (UniProt P02751)
# [2] = target: Prolow-density lipoprotein receptor-related protein 1 (human) (UniProt Q07954)
# [3] = target: Tetratricopeptide repeat protein 13 (Q8NBP0-2) (human) (UniProt Q8NBP0)
# [4] = target: Urokinase plasminogen activator surface receptor (human) (UniProt Q03405)
# [5] = target: Attractin (O75882-2) (human) (UniProt O75882)
# Chain of UniProt O75882 (O75882 other isoform, or with tags, fused parts or gaps limits assumed): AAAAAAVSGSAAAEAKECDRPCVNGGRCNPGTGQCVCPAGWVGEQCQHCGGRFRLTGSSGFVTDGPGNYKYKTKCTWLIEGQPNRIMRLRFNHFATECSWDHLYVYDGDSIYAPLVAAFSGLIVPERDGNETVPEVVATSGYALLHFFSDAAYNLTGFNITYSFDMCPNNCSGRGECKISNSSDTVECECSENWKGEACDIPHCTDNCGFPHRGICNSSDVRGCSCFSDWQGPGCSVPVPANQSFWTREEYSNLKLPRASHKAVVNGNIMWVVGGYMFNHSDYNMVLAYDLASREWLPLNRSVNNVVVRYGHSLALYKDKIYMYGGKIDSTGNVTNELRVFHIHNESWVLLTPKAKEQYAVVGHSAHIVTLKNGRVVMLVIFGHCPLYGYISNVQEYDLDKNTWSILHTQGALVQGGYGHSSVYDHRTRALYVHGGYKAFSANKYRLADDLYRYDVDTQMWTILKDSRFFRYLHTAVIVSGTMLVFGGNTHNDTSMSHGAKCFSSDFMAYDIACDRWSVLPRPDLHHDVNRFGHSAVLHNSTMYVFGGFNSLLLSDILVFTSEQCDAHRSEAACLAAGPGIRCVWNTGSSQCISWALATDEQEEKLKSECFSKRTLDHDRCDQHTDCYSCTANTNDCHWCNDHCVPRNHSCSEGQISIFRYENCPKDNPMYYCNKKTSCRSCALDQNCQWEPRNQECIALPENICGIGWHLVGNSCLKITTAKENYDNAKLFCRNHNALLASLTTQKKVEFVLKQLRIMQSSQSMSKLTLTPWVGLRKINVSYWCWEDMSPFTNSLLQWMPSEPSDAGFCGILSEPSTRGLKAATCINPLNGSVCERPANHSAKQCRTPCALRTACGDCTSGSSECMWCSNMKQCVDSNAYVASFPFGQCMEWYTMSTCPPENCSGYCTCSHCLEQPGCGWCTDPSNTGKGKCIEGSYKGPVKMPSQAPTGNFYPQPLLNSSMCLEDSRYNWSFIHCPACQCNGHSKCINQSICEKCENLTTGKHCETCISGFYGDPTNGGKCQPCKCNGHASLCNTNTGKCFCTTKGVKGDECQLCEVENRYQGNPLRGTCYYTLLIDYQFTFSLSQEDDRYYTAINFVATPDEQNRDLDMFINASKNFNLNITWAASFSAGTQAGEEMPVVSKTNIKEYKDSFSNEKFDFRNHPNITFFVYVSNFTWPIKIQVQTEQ
# Plexin-B2 (human) = Plexin-B2 (human) (UniProt O15031)
# [6] = target: Insulin-like growth factor 1 receptor (human) (UniProt P08069)
# [7] = target: Neutral amino acid transporter B (0) (human) (UniProt Q15758)
# [8] = target: Secretory carrier-associated membrane protein 3 (human) (UniProt O14828)
# Chain of UniProt O14828 (O14828 whole entry): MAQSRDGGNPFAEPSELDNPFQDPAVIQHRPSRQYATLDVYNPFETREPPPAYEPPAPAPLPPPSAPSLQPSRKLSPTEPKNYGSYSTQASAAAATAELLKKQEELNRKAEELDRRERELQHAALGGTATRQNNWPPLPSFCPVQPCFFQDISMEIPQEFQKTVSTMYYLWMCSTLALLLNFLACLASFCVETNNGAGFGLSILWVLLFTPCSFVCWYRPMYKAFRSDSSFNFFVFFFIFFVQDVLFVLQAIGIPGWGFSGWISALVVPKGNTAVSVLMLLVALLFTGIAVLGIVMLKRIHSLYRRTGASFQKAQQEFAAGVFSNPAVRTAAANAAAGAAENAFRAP
# Renin receptor (human) = Renin receptor (human) (UniProt O75787)
# [9] = target: Scavenger receptor class B member 1 (human) (UniProt Q8WTV0)
# Chain of UniProt Q8WTV0 (Q8WTV0 other isoform, or with tags, fused parts or gaps limits assumed): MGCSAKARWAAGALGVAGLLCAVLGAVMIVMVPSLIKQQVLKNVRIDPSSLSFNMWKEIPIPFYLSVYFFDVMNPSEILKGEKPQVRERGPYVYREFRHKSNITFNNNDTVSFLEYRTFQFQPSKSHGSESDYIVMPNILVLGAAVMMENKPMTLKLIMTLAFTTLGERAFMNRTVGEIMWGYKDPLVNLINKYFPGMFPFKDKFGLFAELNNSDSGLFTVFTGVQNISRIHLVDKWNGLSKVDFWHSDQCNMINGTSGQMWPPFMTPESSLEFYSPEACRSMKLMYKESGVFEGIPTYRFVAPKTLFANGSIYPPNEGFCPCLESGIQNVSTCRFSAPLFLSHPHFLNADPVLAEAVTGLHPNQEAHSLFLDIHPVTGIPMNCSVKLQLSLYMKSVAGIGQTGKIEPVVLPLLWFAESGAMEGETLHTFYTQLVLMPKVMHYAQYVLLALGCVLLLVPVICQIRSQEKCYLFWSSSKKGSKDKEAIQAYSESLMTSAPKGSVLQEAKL
# Integrin alpha-2 (human) = Integrin alpha-2 (human) (UniProt P17301)
# Integrin alpha-5 (human) = Integrin alpha-5 (human) (UniProt P08648)
# [10] = target: Metal transporter CNNM4 (human) (UniProt Q6P4Q7)
# [11] = target: Solute carrier family 12 member 7 (human) (UniProt Q9Y666)
# [12] = target: Laminin subunit alpha-5 (human) (UniProt O15230)
# [13] = target: Disintegrin and metalloproteinase domain-containing protein 9 (human) (UniProt Q13443)
# [14] = target: CD109 antigen (Q6YHK3-4) (human) (UniProt Q6YHK3)
# [15] = target: Solute carrier family 2, facilitated glucose transporter member 1 (human) (UniProt P11166)
# Serpin H1 (human) = Serpin H1 (human) (UniProt P50454)
# Chain of UniProt P50454 (P50454 19-418 limits assumed): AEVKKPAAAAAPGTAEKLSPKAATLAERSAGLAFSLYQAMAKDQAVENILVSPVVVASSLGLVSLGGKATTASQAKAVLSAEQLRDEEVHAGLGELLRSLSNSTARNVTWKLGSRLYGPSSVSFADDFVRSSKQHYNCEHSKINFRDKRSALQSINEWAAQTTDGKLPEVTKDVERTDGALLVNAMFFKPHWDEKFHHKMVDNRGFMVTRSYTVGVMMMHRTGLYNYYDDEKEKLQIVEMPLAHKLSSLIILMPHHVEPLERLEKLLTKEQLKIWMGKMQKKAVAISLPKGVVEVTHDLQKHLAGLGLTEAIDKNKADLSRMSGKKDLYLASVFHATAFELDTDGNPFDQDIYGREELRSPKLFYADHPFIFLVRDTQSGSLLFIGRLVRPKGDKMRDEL
# [16] = target: Protocadherin Fat 1 (human) (UniProt Q14517)
# Filamin-A (human) = Filamin-A (human) (UniProt P21333)
# Chain of UniProt P21333 (P21333 other isoform, or with tags, fused parts or gaps limits assumed): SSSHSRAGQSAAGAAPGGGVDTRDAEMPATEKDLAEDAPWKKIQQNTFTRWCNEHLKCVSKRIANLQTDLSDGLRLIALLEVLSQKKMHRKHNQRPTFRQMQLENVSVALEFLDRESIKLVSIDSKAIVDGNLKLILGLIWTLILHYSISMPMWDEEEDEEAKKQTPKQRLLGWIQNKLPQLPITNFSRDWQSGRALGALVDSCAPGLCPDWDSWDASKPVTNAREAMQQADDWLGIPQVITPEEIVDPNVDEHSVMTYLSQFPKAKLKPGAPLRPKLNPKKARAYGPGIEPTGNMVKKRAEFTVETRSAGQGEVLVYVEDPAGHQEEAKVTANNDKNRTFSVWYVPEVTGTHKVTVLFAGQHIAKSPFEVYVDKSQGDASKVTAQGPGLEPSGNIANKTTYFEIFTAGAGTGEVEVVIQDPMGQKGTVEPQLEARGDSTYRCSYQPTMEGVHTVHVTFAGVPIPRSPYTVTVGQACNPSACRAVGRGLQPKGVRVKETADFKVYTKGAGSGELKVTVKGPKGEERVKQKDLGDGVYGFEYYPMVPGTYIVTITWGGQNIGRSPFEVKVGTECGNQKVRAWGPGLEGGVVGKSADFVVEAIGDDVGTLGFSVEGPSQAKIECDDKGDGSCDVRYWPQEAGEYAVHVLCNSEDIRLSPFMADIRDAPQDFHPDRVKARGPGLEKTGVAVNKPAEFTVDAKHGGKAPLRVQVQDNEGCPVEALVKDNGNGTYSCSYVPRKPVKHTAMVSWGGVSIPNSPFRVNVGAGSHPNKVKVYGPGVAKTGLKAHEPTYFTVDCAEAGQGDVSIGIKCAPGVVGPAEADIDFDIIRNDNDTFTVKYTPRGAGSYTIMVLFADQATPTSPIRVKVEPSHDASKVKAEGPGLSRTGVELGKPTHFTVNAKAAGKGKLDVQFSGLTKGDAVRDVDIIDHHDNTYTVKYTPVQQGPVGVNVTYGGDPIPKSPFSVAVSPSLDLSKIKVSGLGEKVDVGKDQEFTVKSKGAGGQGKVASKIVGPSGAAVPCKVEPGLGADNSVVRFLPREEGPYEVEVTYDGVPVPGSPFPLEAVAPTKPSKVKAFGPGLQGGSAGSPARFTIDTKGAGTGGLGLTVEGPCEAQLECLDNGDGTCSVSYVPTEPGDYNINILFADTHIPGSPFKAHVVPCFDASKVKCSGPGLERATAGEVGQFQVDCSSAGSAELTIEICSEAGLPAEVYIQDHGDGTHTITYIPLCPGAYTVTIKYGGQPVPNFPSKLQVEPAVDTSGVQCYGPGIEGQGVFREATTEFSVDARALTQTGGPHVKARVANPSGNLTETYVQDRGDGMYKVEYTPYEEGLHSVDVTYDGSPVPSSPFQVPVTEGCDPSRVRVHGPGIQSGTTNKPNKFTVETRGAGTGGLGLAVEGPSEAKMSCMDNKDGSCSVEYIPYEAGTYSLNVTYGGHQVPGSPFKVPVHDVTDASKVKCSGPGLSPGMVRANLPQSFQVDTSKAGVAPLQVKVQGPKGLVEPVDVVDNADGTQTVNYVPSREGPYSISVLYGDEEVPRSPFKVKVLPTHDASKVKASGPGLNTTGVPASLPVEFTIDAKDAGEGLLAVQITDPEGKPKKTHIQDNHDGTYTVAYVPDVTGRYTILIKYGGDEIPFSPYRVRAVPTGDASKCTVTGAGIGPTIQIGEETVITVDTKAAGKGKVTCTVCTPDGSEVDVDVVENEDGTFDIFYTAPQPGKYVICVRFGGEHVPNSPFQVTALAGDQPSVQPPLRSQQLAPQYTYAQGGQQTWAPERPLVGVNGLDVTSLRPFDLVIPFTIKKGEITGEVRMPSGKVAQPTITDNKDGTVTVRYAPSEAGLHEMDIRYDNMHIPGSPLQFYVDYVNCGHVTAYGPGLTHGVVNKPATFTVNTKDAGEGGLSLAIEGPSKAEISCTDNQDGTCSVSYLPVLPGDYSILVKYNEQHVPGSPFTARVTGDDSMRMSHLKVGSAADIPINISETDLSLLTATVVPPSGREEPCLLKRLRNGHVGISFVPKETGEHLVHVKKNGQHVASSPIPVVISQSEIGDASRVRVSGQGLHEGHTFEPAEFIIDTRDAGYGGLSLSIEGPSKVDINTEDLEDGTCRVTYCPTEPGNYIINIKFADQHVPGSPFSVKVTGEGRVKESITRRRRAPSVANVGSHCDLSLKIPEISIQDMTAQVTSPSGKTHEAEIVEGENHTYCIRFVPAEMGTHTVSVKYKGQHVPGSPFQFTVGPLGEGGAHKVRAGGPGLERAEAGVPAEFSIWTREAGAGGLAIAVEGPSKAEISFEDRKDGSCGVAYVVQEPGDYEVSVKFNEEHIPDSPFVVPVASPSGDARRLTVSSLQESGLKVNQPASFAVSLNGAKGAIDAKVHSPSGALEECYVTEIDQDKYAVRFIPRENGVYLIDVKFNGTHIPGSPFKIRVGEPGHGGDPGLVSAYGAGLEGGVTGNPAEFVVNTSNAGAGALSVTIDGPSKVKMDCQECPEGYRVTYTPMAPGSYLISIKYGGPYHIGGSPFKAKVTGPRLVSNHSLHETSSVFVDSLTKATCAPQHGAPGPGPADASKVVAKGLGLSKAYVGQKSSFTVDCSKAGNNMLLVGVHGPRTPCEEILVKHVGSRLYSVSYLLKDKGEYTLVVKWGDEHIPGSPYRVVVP
# [17] = target: Epidermal growth factor receptor (human) (UniProt P00533)
# [18] = target: Transferrin receptor protein 1 (human) (UniProt P02786)
# [19] = target: Laminin subunit beta-1 (human) (UniProt P07942)
substance,measurement,setting,value
Avaren-Fc (AvFc) (Fc fusion),Percentage of Total Spectra (%),Agrin (human),0.15%
same,Percentage of Total Spectra (%),[1],0.11%
same,Percentage of Total Spectra (%),Fibronectin (human),0.21%
same,Percentage of Total Spectra (%),[2],0.017%
same,Percentage of Total Spectra (%),[3],0.11%
same,Percentage of Total Spectra (%),[4],0.066%
same,Percentage of Total Spectra (%),[5],0.058%
same,Percentage of Total Spectra (%),Plexin-B2 (human),0.13%
same,Percentage of Total Spectra (%),[6],0.033%
same,Percentage of Total Spectra (%),[7],0.05%
same,Percentage of Total Spectra (%),[8],0.083%
same,Percentage of Total Spectra (%),Renin receptor (human),0.066%
same,Percentage of Total Spectra (%),[9],0.15%
same,Percentage of Total Spectra (%),Integrin alpha-2 (human),0.0083%
same,Percentage of Total Spectra (%),Integrin alpha-5 (human),0.041%
same,Percentage of Total Spectra (%),[10],0.083%
same,Percentage of Total Spectra (%),[11],0.0083%
same,Percentage of Total Spectra (%),[12],0.23%
same,Percentage of Total Spectra (%),[13],0.091%
same,Percentage of Total Spectra (%),[14],0.13%
same,Percentage of Total Spectra (%),[15],0.033%
same,Percentage of Total Spectra (%),Serpin H1 (human),0.058%
same,Percentage of Total Spectra (%),[16],0.058%
same,Percentage of Total Spectra (%),Filamin-A (human),0.13%
same,Percentage of Total Spectra (%),[17],0.058%
same,Percentage of Total Spectra (%),[18],0.21%
same,Percentage of Total Spectra (%),[19],0.31%
